From US20180355050A1 (Ablynx, published 2018) come the findings set out here.

One may read the IC50 as the concentration needed to halve the response being measured.

In assay [1] the target is T1, human CD40L expressed on CHO cells (human, UniProt P29965 1-261).
T1 sequence: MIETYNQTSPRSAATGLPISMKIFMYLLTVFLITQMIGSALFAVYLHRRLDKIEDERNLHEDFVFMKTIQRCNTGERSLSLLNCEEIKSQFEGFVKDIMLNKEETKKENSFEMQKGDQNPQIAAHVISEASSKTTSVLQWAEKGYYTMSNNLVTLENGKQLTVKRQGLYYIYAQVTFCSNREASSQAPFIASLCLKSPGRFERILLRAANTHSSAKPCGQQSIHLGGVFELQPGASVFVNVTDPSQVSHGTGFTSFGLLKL
Nature of the assay: cell-based or functional assay.

Assay [2] concerns the target T2, recombinant human CD40L (human, UniProt P29965 108-261, limits assumed).
T2 construct: Bought soluble recombinant protein (R&D, HEK, 6420-CL/CF); also called hCD40L; human CD40L (HEK, R&D)
T2 sequence: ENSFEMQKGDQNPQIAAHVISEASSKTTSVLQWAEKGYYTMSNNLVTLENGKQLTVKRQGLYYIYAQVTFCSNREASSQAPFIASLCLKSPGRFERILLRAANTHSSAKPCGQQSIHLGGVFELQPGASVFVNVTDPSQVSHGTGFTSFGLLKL
Description: FACS ligand competition, biotinylated human CD40L on cyno CD40 HEK cells. As for the experimental part: Cross-reactivity to cynomolgus CD40L (UniProt accession number: G7PG38) and rhesus CD40L (UniProt accession number: G7N4M5) was tested in a ligand competition assay. […] 2×10⁵ cells (transiently transfected HEK cells) were incubated with dilution series of the purified Nanobodies in FACS buffer for 30 minutes at 4° C. Cells were then washed 3× and finally resuspended in FACS buffer containing Streptavidin-PE (BD Pharmingen, #554061). This mixture was incubated for 30 minutes at 4° C. Cells were further handled as set out above.

Assay [3] deals with T1, human CD40L expressed on CHO cells. Description: cell-based or functional assay. This is another data set of the same source.
In assay [4] the target is T2, recombinant human CD40L. Nature of the assay: FACS ligand competition, biotinylated human CD40L on human CD40 HEK cells.
Assay [5] has as its target T3, recombinant mouse CD40L (mouse, UniProt P27548 112-260, limits assumed).
T3 construct: also called mouse CD40L (R&D NSO)
T3 sequence (looked up): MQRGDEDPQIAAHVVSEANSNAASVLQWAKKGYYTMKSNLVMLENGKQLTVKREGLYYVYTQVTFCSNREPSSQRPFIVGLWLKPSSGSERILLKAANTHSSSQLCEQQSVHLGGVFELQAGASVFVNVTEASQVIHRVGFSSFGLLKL
Description: SPR (ProteOn), immobilised recombinant mouse CD40L 3000-4000 RU; member of the lead panel. As for the experimental part: To assess binding to mouse CD40L (UniProt accession number: P27548), ProteOn GLC Sensor Chips were coated with 3000-4000 RU of recombinant mouse CD40L (R&D NSO) in 10 mM acetate buffer pH5.5. Purified monovalent anti-CD40L Nanobodies in ProteOn running buffer: PBS/Tween (phosphate buffered saline, pH 7.4 with 0.005% Tween 20) were flown over the sensor chips at 100 nM. Processed curves were used for off-rate analysis based on the Langmuir dissociation model.

For assay [6], the target named is T1, human CD40L expressed on CHO cells. Description: cell-based or functional assay. The source holds these as a separate data set.
The target in assay [7] is HVEM-L (TNF14) (human, UniProt O43557 74-240, limits assumed). Description: competition ELISA on coated human CD40L, fixed Nanobody, dilution series of competitor. The text has this:
(§1) The Basic Local Alignment Search Tool (BLAST) was used to identify the closest related protein in the human protein database. […] A fixed concentration of Nanobody was used together with a dilution series of competitor (TNFα, HVEM-L (TNF14) and hRANKL (TN F11); CD40L was used as positive control), starting at a 100-fold excess. The Nano bodies were detected with anti-FLAG-HRP (Sigma (A8592)).
For orientation: In an ELISA, binding on a coated surface is turned into a signal by an enzyme label.

Assay [8] concerns the target T4, hRANKL (TNF11) (human, UniProt O14788 140-317, limits assumed).
T4 sequence (looked up): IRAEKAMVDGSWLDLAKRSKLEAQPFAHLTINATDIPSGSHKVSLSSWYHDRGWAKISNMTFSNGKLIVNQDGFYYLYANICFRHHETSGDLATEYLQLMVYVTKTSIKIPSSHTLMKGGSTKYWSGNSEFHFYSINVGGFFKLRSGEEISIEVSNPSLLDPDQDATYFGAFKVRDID
The assay is described as above.
Description: as §1

Assay [9] addresses human TNFα (human, UniProt P01375 77-233). The description is as above.
Description: as §1

Assay [10] deals with T5, rat CD40L on transiently transfected HEK cells (rat, UniProt Q9Z2V2 1-260).
T5 construct: whole, on cells
T5 sequence (looked up): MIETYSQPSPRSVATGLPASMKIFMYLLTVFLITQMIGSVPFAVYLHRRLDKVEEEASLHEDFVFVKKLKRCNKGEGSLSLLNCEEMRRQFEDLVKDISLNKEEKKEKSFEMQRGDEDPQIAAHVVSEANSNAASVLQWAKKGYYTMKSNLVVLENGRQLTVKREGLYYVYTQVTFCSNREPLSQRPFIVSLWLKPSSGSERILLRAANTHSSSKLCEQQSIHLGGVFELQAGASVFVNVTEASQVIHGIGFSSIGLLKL
Nature of the assay: FACS on HEK cells transiently transfected with rat CD40L. As to the method:
Cross-reactivity to rat CD40L (UniProt accession numbers: Q9Z2V2 and Q9R254 (secondary)) was tested in FACS. Purified Nanobodies were analyzed on FACS for binding to rat CD40L. 2×10⁵ cells (transiently transfected rat CD40L HEK cells) were incubated with the purified Nanobodies in FACS buffer for 30 minutes at 4° C. Cells were washed 3×, re-suspended and incubated for 30 minutes at 4° C. Cells were washed again 3× and dead cells were stained with TOPRO3 (Molecular probes, T3605). Samples were analyzed on a FACSarray™ (BD Biosciences).

For assay [11], the target named is T2, recombinant human CD40L. Description: FACS ligand competition, biotinylated human CD40L on rhesus CD40 HEK cells.
The target of assay [12] is T2, recombinant human CD40L. Description: SPR off-rate (ProteOn, 37 °C), immobilised recombinant human CD40L. As to the method: All off-rates were determined on a ProteOn XPR36 instrument (Bio-Rad Laboratories, Inc.). […] 10-fold diluted periplasmic extracts of anti-CD40L Nanobodies expressing E. coli clones in running buffer ProteOn PBS/Tween (phosphate buffered saline, pH7.4 with 0.005% Tween 20) were flown over the sensor chips. Purified monovalent anti-CD40L Nanobodies were flown over the sensor chips at 100 nM. […] Data obtained was double referenced by Interspot subtraction as well as subtraction of a blank buffer injection. Processed curves were used for off-rate analysis based on the Langmuir dissociation model.
Affinity maturation was performed by screening error prone libraries generated from each parental Nanobody clone. In this approach, amino acid substitutions result from random introduction of mutations in the Nanobody encoding DNA via an error prone PCR. As a consequence, amino acid substitutions are found both in the CDRs and in the Framework Regions (FRs). 5 rounds of phage display selections were performed in solution using decreasing concentrations of recombinant CD40L (from 50 nM to 0.05 pM). Following phage display, individual Nanobodies were sequenced and off-rates were determined by SPR analysis (cf. Example 6.1.3).

Residue numbers refer to the chain shown, from its start. Numbers in names are those of the source.

human TNFα, sequence (P01375 77-233 limits assumed): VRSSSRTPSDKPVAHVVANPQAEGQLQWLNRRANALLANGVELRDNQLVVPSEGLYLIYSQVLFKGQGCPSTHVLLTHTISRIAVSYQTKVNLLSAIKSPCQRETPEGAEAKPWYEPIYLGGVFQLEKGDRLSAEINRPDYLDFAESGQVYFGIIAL
HVEM-L (TNF14), sequence (O43557 74-240 limits assumed): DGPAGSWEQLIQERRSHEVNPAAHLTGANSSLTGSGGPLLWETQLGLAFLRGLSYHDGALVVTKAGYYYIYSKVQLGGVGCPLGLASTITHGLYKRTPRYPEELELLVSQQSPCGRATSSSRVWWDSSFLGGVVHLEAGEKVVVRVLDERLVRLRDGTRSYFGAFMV

CDP7657 (non-pegylated) (Fab): in [1], the IC50 (pM), B-cell activation was 101 pM and the IC50 (pM), B-cell proliferation came out at 864 pM.

B1: C0100046B03 (VHH)
VHH: EVQLVESGGGLVQAGGSLRLSCAASGRTPLNYHMAWFRQAPGKEREFVAAISSLLGSTDYSDSLKDRFTISRDNAKATLYLRMNNLKPEDTAVYYCAARETTHYSTSDRVNEMRHYDYWGQGTLVTVSS
notes: Monovalent Nanobody; tag of the monovalent form not spelled out; also called C01000046B03
For B1, the “% block (maximum observed effect)” value in assay [2] was found to be 97%; in assay [4], 96%; in assay [11], 100%. The IC50 came to 22.7 nM in [2], 15.3 nM in [4] and 28.2 nM in assay [11]. In assay [3], the “Average IC50 (M), B-cell proliferation assay” value (“Average IC50 (M)” below) worked out at 2.18e-09 M. Also, the binding result in [5] was “no binding (tested: 100 nM)”; in assay [7], “no binding (tested: competitor from a 100-fold excess)”; in assay [8], “no binding (tested: competitor from a 100-fold excess)”; in assay [9] it was “no binding (tested: competitor from a 100-fold excess)”; in [10], “no binding”. For the same molecule, in assay [6], the “IC50 (M), B-cell proliferation assay, +HSA” value (“IC50 (M) … +HSA” below) stood at 2.38e-09 M.

B2: C0100046B03 Y100I (VHH, name in Kabat numbering)
VHH: B1 VHH with Y104I
Regarding B2, the “fold improved off-rate over parental C0100046B03” value in assay [12] amounted to 1.5 fold.

B3: C0100046B03 H100kN (VHH, name in Kabat numbering)
VHH: B1 VHH with H115N
notes: single mutation
As for B3, the “fold improved off-rate over parental C0100046B03” value in [12] worked out at 2.6 fold.

B4: C0100046B03 H100kS (VHH, name in Kabat numbering)
VHH: B1 VHH with H115S
B4: in assay [12], the “fold improved off-rate over parental C0100046B03” value was around 2 fold.

B5: C0100046B03 H100kA (VHH, name in Kabat numbering)
VHH: B1 VHH with H115A
For the molecule B5, in [12], the “fold improved off-rate over parental C0100046B03” value is around 2 fold.

B6: C0100028B02 (VHH)
VHH: EVQLVESGGGLVQPGGSLRLSCAASGFTLEYYAIGWFRQAPGKEREGVSCISSEGSTSYTDSVKGRFTISRDNAKNTVYLQMNSLKPEDTAVYYCATDPDRGFLGSSCDTQSHQYDYWGQGTLVTVSS
notes: Monovalent Nanobody produced in P. pastoris (pAX205); Detected with anti-FLAG reagents, but the tag of the monovalent form is not spelled out; also called C01000028B02
Consider B6, for which the “% block (maximum observed effect)” value in [2] was found to be 75%; in [4] it was 71%; in [11] it was 72%. In addition, the values for the IC50 in [2], in [4] and in [11] were 4.7 nM, 4.43 nM and 4.55 nM, respectively. For the same molecule, the “Average IC50 (M)” value in assay [3] was determined as 1.15e-09 M. Moreover, the binding result is recorded as “no binding (tested: 100 nM)” in assay [5]; “no binding (tested: competitor from a 100-fold excess)” in assay [7]; “no binding (tested: competitor from a 100-fold excess)” in assay [8]; “no binding (tested: competitor from a 100-fold excess)” in [9]; “no binding” in assay [10]. Moreover, the “IC50 (M) … +HSA” value in [6] is 2.81e-09 M.

B7: C0100028B02 D101G (VHH, name in Kabat numbering)
VHH: B6 VHH with D116G
Regarding B7, the “fold improved off-rate over parental C0100028B02” value in assay [12] was 1.3 fold.

B8: C0100028B02 L100aF (VHH, name in Kabat numbering)
VHH: B6 VHH with L104F
As for B8, in [12], the “fold improved off-rate over parental C0100028B02” value is 1.3 fold.

B9: C0100028B02 Y102F (VHH, name in Kabat numbering)
VHH: B6 VHH with Y117F
For the molecule B9, the “fold improved off-rate over parental C0100028B02” value in [12] was found to be 1.8 fold.

B10: C0100044B07 (VHH)
VHH: EVQLVESGGGLVQPGGRLRLSCAASGFTLDYYALAWFRQAPGKEREGVSCISSSEGSTDYADYADSVKGRFTISRDTAKNTVYLQMNNLKPEDTAVYYCATDETTFFSGSCTLSAATFGSWGQGTLVTVSS
notes: Monovalent Nanobody; tag of the monovalent form not spelled out; also called C01000044B07
Regarding B10, the “% block (maximum observed effect)” value in [2] stood at 79%; in [4] it was 82%; in [11], 83%. Moreover, the 50% inhibitory concentration (IC50) in assay [2] came to 5.28 nM; in [4], 5.89 nM; in assay [11] it was 5.41 nM. Also, in assay [3], the “Average IC50 (M)” value turned out to be 9.71e-10 M. The binding result is reported as “no binding (tested: 100 nM)” in [5]; “no binding (tested: competitor from a 100-fold excess)” in assay [7]; “no binding (tested: competitor from a 100-fold excess)” in [8]; “no binding (tested: competitor from a 100-fold excess)” in [9]; “no binding” in [10]. In addition, in assay [6], the “IC50 (M) … +HSA” value came to 1.14e-09 M.
